Experimental findings from the supplement of paper PMC10567573 are described below.

This series in a line: protein stability index of a GFP-peptide fusion (GPS, HEK-293T) (PSI 1-6); higher = more stable. The note with it: c terminus: a fixed tail appended.

± gives the standard deviation.
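Note: 24-mer peptide tiles fused after GFP, lentivirally expressed, FACS-sorted into six equal bins by GFP/DsRed ratio, decoded by Illumina sequencing, PSI is the read-weighted mean bin number.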

For RIYSYQMALTPVVVTLWYRAPEVL [CDK4], the protein stability index came out at 2.98 ± 0.12 (treatment: DMSO) and 2.77 ± 0.47 (treatment: MLN4924 1 uM, 8 h).
For RIYVLGGGTSWTAYSLNKIHAYNL [KLHDC10] the same measures were 2.42 ± 0.41 and 2.61 ± 0.67.
The corresponding values for RKGELVTASKAIIEKEYQPHVIVS [ADD1] are 3.62 ± 0.18 and 3.97 ± 0.21.
The corresponding values for RKKEAKRKISSLSFTLEEEEEGGE [FAM50A] are 5.33 ± 0.41 and 5.67 ± 0.41.
With RKLSQGILIIRFEMPYNIWCDGCK [YJU2B], the protein stability index by setting is: (treatment: DMSO) 2.57 ± 0.62; (treatment: MLN4924 1 uM, 8 h) 3.3 ± 0.79.
Turning to RKPGMSSTARRSRAASSQRAEEED [CHMP4C], the protein stability index runs as follows: (treatment: DMSO) 5.38 ± 0.17; (treatment: MLN4924 1 uM, 8 h) 5.41 ± 0.25.
The corresponding values for RKQARQLENELDLKLVSFSKLCTS [GOSR1] are 3.03 ± 0.34 and 3.22 ± 0.54.
The corresponding values for RKTVCHNGVLGLSRLLFFLLGFLR [LPCAT4] are 2.92 ± 0.35 and 3.04 ± 0.38.
The corresponding values for RLDASTSHQNLRVDDLSVEWDAMG [FSD1] are 4.51 ± 0.34 and 4.62 ± 0.34.
RLIEVEDMMVMGRKPDPMCVFTYV [SMTNL2]: the protein stability index reads like this: (treatment: DMSO) 2.38 ± 0.37; (treatment: MLN4924 1 uM, 8 h) 2.59 ± 0.41.
The corresponding values for RLKLMQQNPAGELEGFQAQGHPPS [ATE1] are 4.29 ± 0.18 and 4.31 ± 0.12.
For RLPGGGWTLRRTKELRKDYQGPGT [DYRK1B] the same measures were 3.14 ± 0.26 and 3.43 ± 0.35.
The corresponding values for RMDTPPPEERLEKQNEKLNNQEEE [CCDC89] are 5.55 ± 0.29 and 5.48 ± 0.28.
In the case of RMEEIVEGCTGALHILARDVHNRI [CTNNB1], the protein stability index was 2.74 ± 0.19 (treatment: DMSO) and 2.89 ± 0.28 (treatment: MLN4924 1 uM, 8 h).
For RMLEFDPAQRITLAEALLHPFFAG [CLK3], the protein stability index is, setting by setting: (treatment: DMSO) 2.38 ± 0.25; (treatment: MLN4924 1 uM, 8 h) 2.39 ± 0.19.
The corresponding values for RPATAADCSDILRLIKELAKYEYM [SAT1] are 2.06 ± 0.14 and 2.48 ± 0.18.
For RQAELLEKRLQEIEELEREAERKI [SRPK2] the same measures were 5.13 ± 0.32 and 5.18 ± 0.14.
On to RQITQVYGFYDECLRKYGNANVWK [PPP2CA], for which the protein stability index is, setting by setting: (treatment: DMSO) 2.19 ± 0.33; (treatment: MLN4924 1 uM, 8 h) 2.33 ± 0.26.
Regarding RQLDPSNCLGIRAFADTHSCRELL [KLHL20], the protein stability index reads like this: (treatment: DMSO) 3.07 ± 0.32; (treatment: MLN4924 1 uM, 8 h) 3.23 ± 0.3.
For RQNVPRKVPNHYIAIPEWFLSENA [CPXM2] the same measures were 2.82 ± 0.23 and 3.05 ± 0.5.
Take RQRLAKNDRGDHYHWKDLNRGINI [EFHC1]: the protein stability index reads like this: (treatment: DMSO) 2.96 ± 0.46; (treatment: MLN4924 1 uM, 8 h) 2.99 ± 0.21.
The corresponding values for RRHPGLGKAFPSGCSAVSEPASES [TRAF3IP2] are 4.31 ± 0.18 and 4.3 ± 0.41.
For RRSTTDLRGTQFDYERGKGESTED [ZSWIM9] the same measures were 5.57 ± 0.17 and 5.53 ± 0.15.
The corresponding values for RSEALAVDGAGKPGAEEAQDPEGK [CHGA] are 5.61 ± 0.15 and 5.561 ± 0.045.
The sequence RTAQSEETRVWHRRDGKWQIVHFH [CAMK2A] registered a protein stability index (treatment: DMSO) of 3.15 ± 0.16 and a protein stability index (treatment: MLN4924 1 uM, 8 h) of 3.12 ± 0.26.
The corresponding values for RTSSGNVWVTHEEMETLETSTKTD [PPFIA4] are 5.24 ± 0.35 and 4.99 ± 0.06.
The corresponding values for RVDFEEFVELIGPKLREETAHMLG [CABP4] are 2.58 ± 0.25 and 2.73 ± 0.39.
For RVDHGAEIITQSPGRSSVASPRRL [MAP2], the protein stability index by setting is: (treatment: DMSO) 4.45 ± 0.13; (treatment: MLN4924 1 uM, 8 h) 4.71 ± 0.17.
RVILEIDNARLAVDDFRLKYENEL [KRT13] came in with a protein stability index (treatment: DMSO) of 2.4 ± 0.25 and a protein stability index (treatment: MLN4924 1 uM, 8 h) of 2.66 ± 0.45.
Regarding RVLFIKDVIGDEICCWSFYGQGRK [KCTD10], the protein stability index by setting is: (treatment: DMSO) 1.89 ± 0.51; (treatment: MLN4924 1 uM, 8 h) 2.38 ± 0.23.
The corresponding values for RVLRQPRPALAQQAQGARAGGSAR [GMCL1] are 5.03 ± 0.23 and 4.93 ± 0.19.
For RVSNPGRLAELLLLETDAGPAASE [GADD45A] the same measures were 4.46 ± 0.28 and 4.28 ± 0.26.
The corresponding values for RVVDGTPCSPDSSSVCVQGRCIHA [ADAMTS4] are 4.21 ± 0.35 and 4.39 ± 0.16.
For RWMGLACFRSLAASSPSIRQKKLM [CCDC70], the protein stability index turned out to be 2.29 ± 0.61 (treatment: DMSO) and 2.29 ± 0.4 (treatment: MLN4924 1 uM, 8 h).
For RYRGLGLLASVPSNPNGNGGFMGY [CRY1] the same measures were 2.53 ± 0.14 and 2.91 ± 0.19.
As to SAPHLENSGHTIFNDPFFIVETVC [KCNA4], the protein stability index by setting is: (treatment: DMSO) 2.43 ± 0.23; (treatment: MLN4924 1 uM, 8 h) 2.46 ± 0.38.
